Results on 7 molecules are retold here after PMC5487423, “Yeast surface display identifies a family of evasins from ticks with novel polyvalent CC chemokine-binding activities” (Scientific Reports, 2017).

Test [1] concerns the target T1, P991_AMBCA, purified, C-terminal StrepII-8xHis tag (Amblyomma cajennense, UniProt A0A023FFD0 29-136).
T1 sequence: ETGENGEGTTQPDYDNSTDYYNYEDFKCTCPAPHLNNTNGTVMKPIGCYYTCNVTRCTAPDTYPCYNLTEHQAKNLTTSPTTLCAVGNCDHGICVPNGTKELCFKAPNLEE
The test can be described thus: BLI; Kd and koff determination: His-tagged evasin immobilised on Ni-NTA biosensor (OctetRed), chemokine dilutions from 300 nM to 0.4 nM, 30 °C, same buffer as the screen; reference protein subtracted; 1:1 model with global fit, or steady state; each experiment once. The following applies: both partners purified.

Test [2] has as its target T2, P467_RHIPU, purified, C-terminal StrepII-8xHis tag (Rhipicephalus pulchellus, UniProt L7M8Z8 22-127).
T2 sequence: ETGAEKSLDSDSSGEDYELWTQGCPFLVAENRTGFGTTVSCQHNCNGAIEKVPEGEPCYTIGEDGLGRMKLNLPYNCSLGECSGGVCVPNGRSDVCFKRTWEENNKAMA
Described as above. The following applies: both partners purified.

B1: CCL7 (ligand)
chain: not shown
notes: source: bought: Peprotech
Take B1: in test [1], the dissociation half-life turned out to be 2.4 h.

B2: CCL3 (ligand, human, UniProt P10147 24-92, looked up)
chain: SLAADTPTACCFSYTSRQIPQNFIADYFETSSQCSKPGVIFLTKRSRQVCADPSEEWVQKYVSDLELSA
notes: source: bought: Peprotech
As to B2, in test [2], the binding result is “binds”.

B3: CCL18 (ligand, human, UniProt P55774 21-89, looked up)
chain: AQVGTNKELCCLVYTSWQIPQKFIVDYSETSPQCPKPGVILLTKRGRQICADPNKKWVQKYISDLKLNA
notes: source: bought: Peprotech
Consider B3, for which the binding result in test [2] and in test [1] was “binds” each time.

B4: CCL1 (ligand, human, UniProt P22362 24-96, looked up)
chain: KSMQVPFSRCCFSFAEQEIPLRAILCYRNTSSICSNEGLIFKLKRGKEACALDTVGWVQRHRKMLRHCPSKRK
notes: source: bought: Peprotech
Consider B4, for which the binding result in test [2] is recorded as “binds”.

B5: CCL5 (ligand, human, UniProt P13501 24-91, looked up)
chain: SPYSSDTTPCCFAYIARPLPRAHIKEYFYTSGKCSNPAVVFVTRKNRQVCANPEKKWVREYINSLEMS
notes: source: bought: Peprotech
As for B5, the binding result in test [2] and in test [1] was “binds” in each case.

B6: CCL11 (ligand)
chain: not shown
notes: source: bought: Peprotech
Take B6: the binding result in test [2] is “binds”.

B7: CCL8 (ligand, human, UniProt P80075 24-99, looked up)
chain: QPDSVSIPITCCFNVINRKIPIQRLESYTRITNIQCPKEAVIFKTKRGKEVCADPKERWVRDSMKHLDQIFQNLKP
notes: source: bought: Peprotech
For B7, the binding result in test [2] is “binds”.
